The assay concerns the target rhRKIP C133A mutant, histidine-tagged (human) (UniProt P30086). Description: non-reducing SDS-PAGE; purified rhRKIP in sample loading buffer without β-mercaptoethanol or boiling; Coomassie Brilliant Blue staining or anti-His immunoblot. (In western blotting, separated proteins are transferred to a membrane and probed.)

Among the data in publication PMC11767649 are stoichiometry N values, retold here.

Consider “rhRKIP C133A mutant, histidine-tagged (from UniProt P30086 1-187) (natural protein)”, for which the stoichiometry N turned out to be 2.

For orientation: stoichiometry N means a count of units in the complex or per binding partner.
